{"source": "paper PMC11548754", "about": "“DRN facilitates WUS transcriptional regulatory activity by chromatin remodeling to regulate shoot stem cell homeostasis in Arabidopsis”", "binders": {"B1": {"name": "CLV3 promoter probe (-1090 to -1064) (dsDNA)", "DNA 1": "GGCTCATATAATCCATTCAATTTATG", "DNA 2": "CATAAATTGAATGGATTATATGAGCC"}}, "key": {"GST-WUS (WUSCHEL)": {"target": "T1, GST-WUS (WUSCHEL) (Arabidopsis thaliana, UniProt Q9SB92 1-292)", "T1 sequence": "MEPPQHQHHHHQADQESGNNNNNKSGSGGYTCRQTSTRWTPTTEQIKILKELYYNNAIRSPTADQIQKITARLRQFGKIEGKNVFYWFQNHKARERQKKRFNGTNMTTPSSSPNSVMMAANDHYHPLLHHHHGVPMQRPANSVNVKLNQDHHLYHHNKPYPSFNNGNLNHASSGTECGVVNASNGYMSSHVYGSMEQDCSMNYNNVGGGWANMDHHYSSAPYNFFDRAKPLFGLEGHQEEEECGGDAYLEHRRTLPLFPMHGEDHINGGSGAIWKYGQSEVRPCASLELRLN", "assay": "EMSA; EMSA kit (Thermo 20148), biotin-labeled probe; buffer, salt, pH and temperature not stated", "details": "protein: recombinant; tags: N-terminal GST (pGEX6p-1); chain copies: 2; label: biotin; blunt"}, "[1]": {"target": "GST-WUS (WUSCHEL);8His-MBP-DRN (DORNROSCHEN) (Arabidopsis thaliana;Arabidopsis …, UniProt Q9SB92;Q9SAD4 1-292;1-328, |)", "sequence (Q9SAD4 whole entry, one chain of several)": "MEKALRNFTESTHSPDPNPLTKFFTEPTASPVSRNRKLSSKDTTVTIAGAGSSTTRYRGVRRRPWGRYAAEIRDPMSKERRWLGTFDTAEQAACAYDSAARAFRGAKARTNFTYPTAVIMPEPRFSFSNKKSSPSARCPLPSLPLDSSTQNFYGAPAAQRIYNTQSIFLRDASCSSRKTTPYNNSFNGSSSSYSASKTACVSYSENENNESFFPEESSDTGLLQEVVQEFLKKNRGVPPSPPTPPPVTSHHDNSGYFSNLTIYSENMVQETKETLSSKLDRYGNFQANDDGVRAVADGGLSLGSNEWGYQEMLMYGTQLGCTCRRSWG", "assay": "EMSA; super-shift on adding DRN to WUS; EMSA kit (Thermo 20148), biotin-labeled probe; buffer, salt, pH and temperature not stated", "details": "protein: recombinant;recombinant; tags: N-terminal GST (pGEX6p-1);N-terminal 8His-MBP (modified pET28b); label: biotin; blunt"}}}
{"binder": "B1", "values": [{"measurement": "binding result", "setting": "GST-WUS (WUSCHEL)", "result": "binds"}, {"measurement": "binding result", "setting": "[1]", "result": "binds"}]}
